Assay [1] concerns the target human GLP-1 receptor on stably transfected CHO cells (human) (UniProt P43220).
In assay [2] the target is T1, recombinant human PCSK9 (proprotein convertase subtilisin/kexin type 9) (human, UniProt Q8NBP7).
T1 construct: also called recombinant PCSK9; source: recombinant
Briefly: SPR; sensorgrams of recombinant human PCSK9 binding to Ab#2 and to Ab#2_GLP1; typical of 8 independent experiments; set-up and conditions not told in the main text. Particulars: both partners purified.

human GLP-1 receptor on stably transfected CHO cells (human), sequence (P43220 24-463): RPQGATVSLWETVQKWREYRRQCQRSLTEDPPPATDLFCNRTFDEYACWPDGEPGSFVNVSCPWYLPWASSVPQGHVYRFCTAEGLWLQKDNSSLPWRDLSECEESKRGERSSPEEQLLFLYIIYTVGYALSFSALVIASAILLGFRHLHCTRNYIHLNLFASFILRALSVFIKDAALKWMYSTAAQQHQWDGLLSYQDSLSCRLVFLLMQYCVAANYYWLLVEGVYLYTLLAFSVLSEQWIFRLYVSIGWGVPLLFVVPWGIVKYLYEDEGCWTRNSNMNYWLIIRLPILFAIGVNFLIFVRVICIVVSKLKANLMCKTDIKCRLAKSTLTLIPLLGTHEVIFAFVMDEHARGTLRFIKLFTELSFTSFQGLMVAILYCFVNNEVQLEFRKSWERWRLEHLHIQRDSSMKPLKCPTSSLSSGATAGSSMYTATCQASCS

B1: Ab#2_GLP1: DPP-4-resistant GLP-1 analogue peptide fused by the [G4S]3A linker to the light chain of anti-PCSK9 Ab#2 (antibody, V domains shown)
VH: QVQLVQSGAEVKKPGASVKVSCKASGYTFTSYYMHWVRQAPGQGLEWMGEIHPSGGRTNYNEKFKSRVTMTRDTSTSTVYMELSSLRSEDTAVYYCARERPLYASDLWGQGTTVTVSS
VL: DIQMTQSPSSLSASVGDRVTITCKASQDVHTAVAWYQQKPGKAPKLLIYHASYRYTGVPSRFSGSGSGTDFTFTISSLQPEDIATYYCQQRYSLWRTFGQGTKLEIK
notes: also called non-glycosylated Ab#2_GLP1 fusion; source: CHO cells, transient co-transfection, purified (Protein A MabSelectSure)
In assay [1], B1 returned a potency in the cAMP accumulation assay, CHO cells expressing human GLP-1R of 87 pM. The binding result in assay [2] is listed as “binds”.

B2: anti-PCSK9 antibody Ab#2 (antibody, V domains shown)
VH: B1 VH
VL: B1 VL
notes: also called anti-PCSK9 Ab#2; source: CHO cells, transient co-transfection, purified (Protein A MabSelectSure)
As for B2, in assay [2], the binding result is “binds”.

These data come from paper PMC6277417 (Scientific Reports, 2018).
